In publication PMC3216068:

Molecular target: SUMO1 (human) (UniProt P63165)
Assay: SPR; preliminary BiaCore analyses, done by Affina Biotechnologies as a paid service

UniProt P63165, sequence (P63165 1-97): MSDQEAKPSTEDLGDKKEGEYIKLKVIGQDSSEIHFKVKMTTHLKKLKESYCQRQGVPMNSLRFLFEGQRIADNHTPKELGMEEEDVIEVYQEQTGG

Kd: 12.8 nM
Substance: Ulp1(3)^(C580S) as used in the BiaCore analyses (from UniProt Q02724 341-621) (domain or fragment)
